In patent US20090181041A1 (published 2009):

Assays:
[1] = molecular target: T1, Recombinant human macrophage mannose receptor (MMR) (human, UniProt P22897 19-1383, limits assumed); experiment: SPR (Biacore 2000), receptor amine-coupled on CM5 chip, fusion protein as analyte, apparent Kd from steady state
T1 construct: Bought; Amine-coupled to a CM5 chip at 13745 RU; also called CD206
T1 sequence (looked up): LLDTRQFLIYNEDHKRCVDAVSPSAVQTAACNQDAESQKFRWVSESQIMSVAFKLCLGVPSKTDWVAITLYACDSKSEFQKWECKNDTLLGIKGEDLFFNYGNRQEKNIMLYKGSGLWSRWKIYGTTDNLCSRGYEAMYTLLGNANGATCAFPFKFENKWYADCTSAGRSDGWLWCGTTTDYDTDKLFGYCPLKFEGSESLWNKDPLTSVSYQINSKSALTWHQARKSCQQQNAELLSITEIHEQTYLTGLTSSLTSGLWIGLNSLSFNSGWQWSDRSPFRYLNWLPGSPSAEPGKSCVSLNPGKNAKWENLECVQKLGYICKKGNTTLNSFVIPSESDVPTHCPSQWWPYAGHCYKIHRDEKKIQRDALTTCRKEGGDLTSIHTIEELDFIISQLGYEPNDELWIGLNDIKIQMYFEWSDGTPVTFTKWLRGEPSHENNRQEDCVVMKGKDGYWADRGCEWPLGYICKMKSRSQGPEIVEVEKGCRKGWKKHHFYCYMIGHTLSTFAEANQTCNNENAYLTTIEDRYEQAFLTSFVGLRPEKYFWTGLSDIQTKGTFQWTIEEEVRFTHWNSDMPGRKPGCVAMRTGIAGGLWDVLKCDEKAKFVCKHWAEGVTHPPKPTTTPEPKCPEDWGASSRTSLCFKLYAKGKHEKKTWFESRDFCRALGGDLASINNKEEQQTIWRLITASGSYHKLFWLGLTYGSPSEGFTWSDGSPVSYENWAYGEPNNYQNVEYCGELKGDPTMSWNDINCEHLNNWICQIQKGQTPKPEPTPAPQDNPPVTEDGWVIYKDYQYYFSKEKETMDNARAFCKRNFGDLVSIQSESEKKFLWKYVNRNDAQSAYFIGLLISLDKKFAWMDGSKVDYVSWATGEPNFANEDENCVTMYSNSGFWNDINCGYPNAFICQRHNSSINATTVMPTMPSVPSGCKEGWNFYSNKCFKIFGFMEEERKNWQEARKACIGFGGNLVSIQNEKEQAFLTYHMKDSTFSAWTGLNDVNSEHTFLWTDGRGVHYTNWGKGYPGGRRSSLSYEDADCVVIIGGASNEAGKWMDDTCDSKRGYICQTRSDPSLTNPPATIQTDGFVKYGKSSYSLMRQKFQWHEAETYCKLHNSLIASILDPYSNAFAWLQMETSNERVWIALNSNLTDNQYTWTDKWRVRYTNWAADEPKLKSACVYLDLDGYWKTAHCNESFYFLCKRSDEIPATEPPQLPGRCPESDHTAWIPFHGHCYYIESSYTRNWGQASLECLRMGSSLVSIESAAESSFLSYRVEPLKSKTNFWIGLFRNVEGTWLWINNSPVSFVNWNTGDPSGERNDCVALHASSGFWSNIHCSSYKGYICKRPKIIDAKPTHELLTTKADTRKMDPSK
Description: (§1) Immunoglobulin fusion proteins of PSGL-1 and AGP produced in wild type Pichia and purified, as described in Example 1, were used in experiments to assess their ability to bind to recombinant human macrophage mannose receptor (MMR), DC-SIGN/Fc chimera and mannan binding lectin (MBL) Using Biacore (real time surface plasmon resonance spectroscopy) analysis as follows.
(§2) Analyses were performed using a Biacore 2000 instrument (Biacore, GE Healthcare, Uppsala, Sweden). Recombinant human macrophage mannose receptor (MMR), DC-SIGN/Fc chimera and mannan binding lectin (MBL) were purchased from R & D Systems and immobilized on a CM5 sensor chip using amine coupling chemistry according to the manufacturer's instructions. Briefly, activation of the surface was made with EDC/NHS 1:1, 10 μL/min for 7 minutes and the receptors were dissolved in sodium acetate buffer pH 4.5 at concentrations of 15 μg/ml for MMR, 10 μg/ml for DC-SIGN and 90 μg/ml for MBL and immobilized at 10 μl/min for 7 minutes. Deactivation of excess of reactive groups was made with ethanolamine, 20 μl/min for 7 minutes. […] Data were calculated using BIAevaluation 4.1 software (Biacore, GE Healthcare) and the apparent equilibrium dissociation constants (Kd) were calculated by plotting steady state binding levels against the analyte concentrations for several concentrations simultaneously. […]

DC-SIGN/Fc chimera = molecular target: T2, DC-SIGN/Fc chimera (human, UniProt Q9NNX6 62-404); experiment: as above
T2 construct: Amine-coupled to a CM5 chip at 8312 RU; also called CD209; dendritic cell-specific ICAM-3-grabbing nonintegrin; Fc part of the bought chimera not given
T2 sequence (looked up): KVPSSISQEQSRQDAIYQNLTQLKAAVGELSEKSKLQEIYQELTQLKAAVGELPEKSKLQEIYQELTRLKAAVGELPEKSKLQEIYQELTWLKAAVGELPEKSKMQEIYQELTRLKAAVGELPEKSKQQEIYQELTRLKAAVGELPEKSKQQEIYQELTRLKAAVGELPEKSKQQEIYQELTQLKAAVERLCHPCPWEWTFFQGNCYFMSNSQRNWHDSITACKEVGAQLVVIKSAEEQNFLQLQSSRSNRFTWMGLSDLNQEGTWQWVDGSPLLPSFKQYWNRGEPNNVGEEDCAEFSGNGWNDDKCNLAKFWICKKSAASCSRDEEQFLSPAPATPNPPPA
Description: as §1, §2

B1: PSGL-1/mIgG2b fusion protein produced in Pichia pastoris (Fc fusion, UniProt Q14242 18-320, looked up)
chain: LQLWDTWADEAEKALGPLLARDRRQATEYEYLDYDFLPETEPPEMLRNSTDTTPLTGPGTPESTTVEPAARRSTGLDAGGAVTELTTELANMGNLSTDSAAMEIQTTQPAATEAQTTQPVPTEAQTTPLAATEAQTTRLTATEAQTTPLAATEAQTTPPAATEAQTTQPTGLEAQTTAPAAMEAQTTAPAAMEAQTTPPAAMEAQTTQTTAMEAQTTAPEATEAQTTQPTATEAQTTPLAAMEALSTEPSATEALSMEPTTKRGLFIPFSVSSVTHKGIPMAASNLSVNYPVGAPDHISVKQC
modifications: O-linked mannose glycans (Hex2-9) and N-linked glycans from expression in P. pastoris; sites not given
notes: extracellular domain; Homodimeric chimeric glycoprotein, about 250-300 kDa, secreted from P. pastoris GS115 by the pPICZalpha vector and purified on MabSelect SuRe; also called PSGL-1/mlgG2b; Pp/PSGL1-mIgG2b; not shown: Fc part of mouse IgG2b
Kd [1]: 76.7 nM
Kd (DC-SIGN/Fc chimera): 8.82 nM
